Paper PMC11488661 (Science immunology, 2024)

Biological target: eOD-GT8 (monomeric ligand) (Human immunodeficiency virus 1, …)

Row | Binder | Kd [nM]
1 | GT8-D36-19_CLK09 (antibody, V domains shown) VH: QVQLVQSGAEVRKPGASVKVSCKASGYTFTGYYIHWVRQAPGQGLEWMGWINPNSGGTNYEQKFQGRVTMTRDTSISTAYLELSRLRSDDTAVYYCARVEGLWTFDIWGQGTMVTVSS VL: DIQMTQSPSSLSASVGDRVTITCQASQDISNYLNWYQQKPGKAPKLLIYDASNLETGVPSRFSGSGSGTDFTFTISSLQSEDIATYYCQQYEFFGGGTKVEIK | 0.958
2 | GT8-D36-2_CLK09 (antibody, V domains shown) VH: QVQLVQSGAEVKKPGASVKVSCKASGYTFTGYYMNWVRQAPGQGLEWMGWINPNSGGTNYAQQFQGRVTMTRDTSISTAYMELSRLKSDDTAVYYCARVDGKKKTFDIWGQGTMVTVSS VL: DIQMTQSPSSLSASVGDRVTITCQASQDISNYLNWYQQKPGKAPKLLIYDVSNLETGVPSRFSGSGSGTAFTFTISSLQPEDIATYYCQQYEFFGGGTKVEIK | 0.997
3 | GT8-D36-20_CLK09 (antibody, V domains shown) VH: QVQLVQSGAEVKKPGASVKVSCKASGYTFTGYYIHWVRQAPGQGLKWMGWINPNSGGTNYAQKFQGRVTMTRDTSISTAYLELSRLRSDDTAVYYCARVEGLWTFDIWGQGTMVTVSS VL: DIQMTQSPSSLSASVGDRVTITCQASQDISNYLNWYQQKPGKAPKLLIYDASNLETGVPSRFSGSGSGTDFIFTISSLQSEDMATYYCQQYEFFGGGTKVEIK | 8.37
4 | GT8-D36-4_CLK09 (antibody, V domains shown) VH: not shown VL: DIQLTQSPSSLSASVGDRVTITCQASQDISSSLNWYQQKTGKAPKVLIYDASNLETGVPSRFSGSGSGTDFTFTISSLQPEDIATYYCQQYEFFGGGTKVEIK | 0.0423
5 | GT8-D36-5_CLK09 (antibody, V domains shown) VH: not shown VL: DIQMTQSPSSLSASVGDRVTITCQTSQDISNYLNWYQQKPGKAPKLLIYDASNLETGVPSRFSGSGSGTDFTFTISSLQPEDIATYYCQQYEFFGGGTKVEIK | 1.28
6 | GT8-D36-21_CLK09 (antibody, V domains shown) VH: QVQLVQSGAEVKKPGASVKVSCKASGYTFTGYYIHWVRQAPGQGLKWMGWINPNSGGTNYAQKFQGRVTMTRDTSISTAYLELSRLRSDDTAVYYCARVEGLWTFDIWGQGTMVTVSS VL: DIQMTQSPSSLSASVGDRVTITCQASQDISNYLNWYQQKPGKAPKLLIYDASNLETGVPSRFSGSGSGTDFTFTIGSLQSEDIATYYCQQYEFFGGGTKVEIK | 6.07
7 | GT8-D36-3_CLK09 (antibody, V domains shown) VH: QVQLVQSGAEVKKPGASVKVSCKASGYTFTGYYMHWVRQAPGQGLEWMGWINPNSGGTNFAQKFQGRVTMTRDTSINTAYMELSRLRSDDSAVFYCARVESKIFDIWGQGTMVTVSS VL: DIQMTQSPSSLSASVGDRVTITCQTSQDISNYLNWYQQKPGKAPKLLIYDASNLETGVPSRFSGSGSGTDFTFTISSLQPEDIATYYCQQYEFFGGGTKVEIK | 0.13
8 | GT8-D36-22_CLK21 (antibody, V domains shown) VH: not shown VL: DIQMTQSPSTLSASVGDRVTITCRASQSISSWLAWYQQKPGKAPKLLIYKASSLESGVPSRFSGSGSGTEFTLTISSLQPDDFATYYCQQYDTFGGGTRVEIK | 2.94
9 | GT8-D36-8_CLK19 (antibody, V domains shown) VH: QVQLVQSGAEVKMPGASVKVSCKASGYTFTGYYMHWVRQAPGQGLEWMGWINPNSGGTNYAQKFQGRVTMTRDTSISTAYMALNSLRSDDAAVYYCAIVLADYRWRFNYWGQGTLVTVSS VL: not shown | 0.411
10 | GT8-D36-6_CLK19 (antibody, V domains shown) VH: QVQLVQSGAEVKKPGASVKVSCKASEYTFTGYYMHWVRQAPGQGLEWMGWINPNSGGTNYVQKFQDRVTMTRDTSINTAYMELSRLRSDDTAVYYCTPVLAYYRWRFDYWGQGTLVTVSS VL: not shown | 2.03
